Where two headings read alike, the source gives them in different places.
Legend:
[1] = molecular target: T1, 1550: Human CD137 with mouse domains 1, 2A and 2B (aa 24-86) (human; mouse, UniProt P20334 24-85); experiment: flow cytometry on transfected 293-F cells, human/mouse CD137 chimera
T1 construct: domain: domains 1, 2A and 2B (aa 24-86); Human/mouse chimera transiently expressed on FreeStyle 293-F cells; Limits of the human pieces are worked out from the printed aa range
Protocol: (§1) The ability of each antibody to bind to a panel of human/mouse CD137 chimeras expressed on the surface of transfected cells was analyzed by flow cytometry.
(§2) The chimeras were designed by exchanging domains or modules of the human CD137 with the corresponding mouse domain. Genes of CD137 human/mouse chimeras were synthesized (GenScript) and constructs cloned into pcDNA3.1 vector (Invitrogen) and transiently transfected into FreeStyle 293-F cells (Invitrogen). The transfected cells were incubated with CD137 antibodies and control antibodies, followed by incubation with anti-human IgG-PE (Jackson Immunoresearch) for detection and analyzed with FACS Verse (BD Biosciences). Binding to the different chimeric constructs was calculated as relative MFI compared to the binding of the isotype control, followed by normalization to the full-length human CD137 construct to minimize the effect of affinity differences between individual antibodies.

[2] = molecular target: T2, 1551: Human CD137 with mouse domains 2A, 2B and 3A (aa 47-96) (human; mouse, UniProt P20334 46-95); experiment: as above
T2 construct: domain: domains 2A, 2B and 3A (aa 47-96); Human/mouse chimera transiently expressed on FreeStyle 293-F cells
T2 sequence (P20334 other isoform, or with tags, fused parts or gaps limits assumed): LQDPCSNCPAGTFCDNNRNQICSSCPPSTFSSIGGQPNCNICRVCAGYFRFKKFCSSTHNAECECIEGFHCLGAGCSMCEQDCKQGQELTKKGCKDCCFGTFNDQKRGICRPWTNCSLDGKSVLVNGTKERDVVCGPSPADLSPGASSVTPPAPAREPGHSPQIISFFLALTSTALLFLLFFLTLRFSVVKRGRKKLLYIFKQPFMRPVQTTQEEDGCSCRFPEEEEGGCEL
Protocol: as §1, §2

[3] = molecular target: T3, 1552: Human CD137 with mouse domains 2B, 3A and 3B (aa 64-118) (human; mouse, UniProt P20334 63-117); experiment: as above
T3 construct: Human/mouse chimera transiently expressed on FreeStyle 293-F cells
T3 sequence (P20334 other isoform, or with tags, fused parts or gaps limits assumed): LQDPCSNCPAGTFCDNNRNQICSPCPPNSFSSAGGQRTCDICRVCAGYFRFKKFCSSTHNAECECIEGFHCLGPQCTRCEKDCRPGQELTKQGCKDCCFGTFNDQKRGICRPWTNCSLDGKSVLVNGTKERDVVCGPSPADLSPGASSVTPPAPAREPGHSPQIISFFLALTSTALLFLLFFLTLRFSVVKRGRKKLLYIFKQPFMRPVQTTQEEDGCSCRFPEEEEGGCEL
Protocol: as §1, §2

[4] = molecular target: T4, 1553: Human CD137 with mouse domains 3A, 3B and 4A (aa 87-133) (human; mouse, UniProt P20334 86-133); experiment: as above
T4 construct: domain: domains 3A, 3B and 4A (aa 87-133); Human/mouse chimera transiently expressed on FreeStyle 293-F cells
T4 sequence (P20334 other isoform, or with tags, fused parts or gaps limits assumed): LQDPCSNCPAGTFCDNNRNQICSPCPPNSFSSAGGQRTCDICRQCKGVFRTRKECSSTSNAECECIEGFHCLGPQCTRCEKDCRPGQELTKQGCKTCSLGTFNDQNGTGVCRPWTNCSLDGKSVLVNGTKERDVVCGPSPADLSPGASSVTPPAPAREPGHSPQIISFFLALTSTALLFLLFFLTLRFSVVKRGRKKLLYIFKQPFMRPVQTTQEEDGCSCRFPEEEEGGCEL
Protocol: as §1, §2

[5] = molecular target: T5, 1554: Human CD137 with mouse domains 3B, 4A and 4B (aa 97-159) (human; mouse, UniProt P20334 96-159); experiment: as above
T5 construct: domain: domains 3B, 4A and 4B (aa 97-159); Human/mouse chimera transiently expressed on FreeStyle 293-F cells
T5 sequence (P20334 other isoform, or with tags, fused parts or gaps limits assumed): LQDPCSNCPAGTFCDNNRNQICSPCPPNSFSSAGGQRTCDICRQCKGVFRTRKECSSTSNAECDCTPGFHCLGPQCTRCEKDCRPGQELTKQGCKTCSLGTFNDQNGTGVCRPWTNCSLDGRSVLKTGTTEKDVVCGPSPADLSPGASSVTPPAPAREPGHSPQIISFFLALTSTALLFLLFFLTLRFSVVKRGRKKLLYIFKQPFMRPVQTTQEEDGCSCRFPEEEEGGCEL
Protocol: as §1, §2

[6] = molecular target: T6, 1555: Human CD137 with mouse domains 1 and 4B and region of unknown function (aa 24-46 and aa 139-186) (human; mouse, UniProt P20334 24-45; P20334 139-185); experiment: as above
T6 construct: Human/mouse chimera transiently expressed on FreeStyle 293-F cells
T6 sequence (P20334 other isoform, or with tags, fused parts or gaps limits assumed): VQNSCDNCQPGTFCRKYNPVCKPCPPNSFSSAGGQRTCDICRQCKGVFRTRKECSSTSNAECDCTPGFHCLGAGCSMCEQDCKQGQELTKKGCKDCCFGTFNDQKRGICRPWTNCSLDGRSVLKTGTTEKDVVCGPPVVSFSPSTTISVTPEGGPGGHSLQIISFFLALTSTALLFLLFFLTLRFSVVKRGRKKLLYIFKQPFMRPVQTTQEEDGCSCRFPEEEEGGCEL
Protocol: as §1, §2

[7] = molecular target: T7, cynomolgus CD137 on transfected CHO cells (CHO-cyCD137) (cynomolgus (Macaca fascicularis); human); experiment: flow cytometry on CHO-cyCD137 cells; 95% confidence interval of the EC50
T7 construct: extracellular domain;domain: transmembrane and intracellular part; also called cyno CD137
T7 sequence (P25942 other isoform, or with tags, fused parts or gaps): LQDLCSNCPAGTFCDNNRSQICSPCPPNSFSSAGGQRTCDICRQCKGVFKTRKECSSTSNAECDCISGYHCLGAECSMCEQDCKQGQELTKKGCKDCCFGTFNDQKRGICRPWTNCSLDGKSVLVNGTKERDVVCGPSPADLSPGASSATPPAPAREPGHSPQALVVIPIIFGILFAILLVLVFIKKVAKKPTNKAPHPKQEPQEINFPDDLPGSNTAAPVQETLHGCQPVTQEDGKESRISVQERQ

[8] = molecular target: T8, human CD137 on transfected CHO cells (CHO-huCD137) (human); experiment: flow cytometry on CHO-huCD137 cells; 95% confidence interval of the EC50
T8 construct: domain: transmembrane and intracellular part
T8 sequence (P25942 other isoform, or with tags, fused parts or gaps limits assumed): as the sequence (P25942 other isoform, or with tags, fused parts or gaps) above, with L4P, S19N, K50R, I66T, S67P, Y69F, E75G, A149V counted along it
Protocol: (§3) Binding and EC50 was determined using flow cytometric of CHO cells transfected with human CD137, cynomolgus CD137 or empty vector. The extracellular part of human or cynomolgus CD137 was fused to the transmembrane and intracellular part of human CD40 and cloned into pcDNA3.1. The vector was subsequently stably transfected into CHO cells. […] CD137-transfected and empty vector-transfected cells were incubated with CD137 antibodies for at least 1 h at 4° C. to saturate the binding. In order to minimize antibody internalization, 0.05% sodium azide was used in the incubation buffer and all work was performed on ice. The CD137 antibodies were detected using PE-conjugated anti-hIgG antibody (109-115-098, Jackson Immunoresearch laboratories), incubated for 30 min at 4° C. Directly after staining the cells were fixed with a paraformaldehyde solution (10× concentrate BD CellFIX, BD biosciences #340181). Cells were analyzed by flow cytometry using FACSVerse (BD Biosciences). The median fluorescence intensity (MFI) for each sample was determined and the dose response data was analysed using Graph Pad Prism.
(§4) MFI data was normalized for each antibody, where 0% is defined as the lowest value and 100% is the highest value in the dose titration for each antibody.

[9] = molecular target: T7, cynomolgus CD137 on transfected CHO …; experiment: flow cytometry on CHO-cyCD137 cells; 95% confidence interval of the EC50; remark: listed apart in the source
Protocol: as §3, §4

[10] = molecular target: T8, human CD137 on transfected CHO cells …; experiment: flow cytometry on CHO-huCD137 cells; 95% confidence interval of the EC50; remark: listed apart in the source
Protocol: as §3, §4

[11] = molecular target: T9, human FcγRIIa (R&D Systems #1330-CD-050) (human, UniProt P12318 36-218, limits assumed); experiment: Octet (BLI), antibody captured on FAB2G tips, soluble FcγR as analyte, 1:1 model
T9 construct: Soluble analyte in the Octet assay
T9 sequence (looked up): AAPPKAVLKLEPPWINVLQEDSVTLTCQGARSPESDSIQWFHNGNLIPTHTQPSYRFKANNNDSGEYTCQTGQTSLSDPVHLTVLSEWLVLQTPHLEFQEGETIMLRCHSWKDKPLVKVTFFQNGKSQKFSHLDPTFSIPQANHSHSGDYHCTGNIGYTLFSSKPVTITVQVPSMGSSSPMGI
Text: (§5) The processed data was fitted using a 1:1 Langmuir binding model with X² as a measurement of fitting accuracy.

[12] = molecular target: T10, human FcγRIIb (R&D Systems #1460-CD-050) (human, UniProt P31994 46-217, limits assumed); experiment: as above
T10 construct: Soluble analyte in the Octet assay
T10 sequence (looked up): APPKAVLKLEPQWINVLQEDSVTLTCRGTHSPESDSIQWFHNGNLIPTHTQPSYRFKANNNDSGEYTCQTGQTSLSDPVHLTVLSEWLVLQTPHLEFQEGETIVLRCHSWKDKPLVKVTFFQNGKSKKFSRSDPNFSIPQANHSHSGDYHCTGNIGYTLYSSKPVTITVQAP
Text: as §5

[13] = molecular target: cynomolgus CD137 (Acro Biosystems #41B-C52H4) (cynomolgus, UniProt A9YYE7 24-186); experiment: Octet (BLI), antibody amine-coupled to ARG2 biosensor, soluble CD137 as analyte, 1:1 model
cynomolgus CD137 (Acro Biosystems #41B-C52H4), sequence (A9YYE7 entry or part of it): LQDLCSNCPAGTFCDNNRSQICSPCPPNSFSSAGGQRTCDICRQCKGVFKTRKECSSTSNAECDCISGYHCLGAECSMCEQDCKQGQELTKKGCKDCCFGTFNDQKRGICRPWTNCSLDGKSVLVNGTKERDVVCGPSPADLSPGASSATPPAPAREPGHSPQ
Protocol: Materials and method CD137 affinity was determined using the Octet Red 96 platform (ForteBio). […] 7 2-fold serial dilutions of CD137 (Acro Biosystems #41B-H5227 and #41B-C52H4) from 100 nM was prepared in 1× kinetic buffer (ForteBio #18-1092). Association was measured for 180 s followed by dissociation for 180 s in 1× kinetic buffer. 10 mM Glycine pH 2.2 was used for regeneration.
Data generated was referenced by reference well subtraction (1188), the baseline was aligned with the y-axis, inter-step correlation by alignment against association was performed and the data was smoothed by a Savitzky-Golay filtering in the data analysis software (v.9.0.0.14). The processed data was fitted using a 1:1 Langmuir binding model with X² as a measurement of fitting accuracy.

T1 sequence (P20334 other isoform, or with tags, fused parts or gaps limits assumed): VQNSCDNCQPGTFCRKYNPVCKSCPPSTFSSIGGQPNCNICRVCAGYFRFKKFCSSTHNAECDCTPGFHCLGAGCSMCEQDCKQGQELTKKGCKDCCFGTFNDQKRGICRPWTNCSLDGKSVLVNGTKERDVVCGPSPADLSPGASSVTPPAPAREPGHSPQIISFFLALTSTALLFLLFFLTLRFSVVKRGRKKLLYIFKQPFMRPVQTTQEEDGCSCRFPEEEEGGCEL

B1: REF2 (antibody)
chain 1: not shown
chain 2: DIVMTQSPDSLSVSLGERATINCRASKSVDSYGNSFMHWYQQKPGQPPKLLIYLASNLESGVPDRFSGSGSGTDFTLTISSLQAEDVAVYYCQQNNEDPRTFGGGTKVEIKRTVAAPSVFIFPPSDEQLKSGTASVVCLLNNFYPREAKVQWKVDNALQSGNSQESVTEQDSKDSTYSLSSTLTLSKADYEKHKVYACEVTHQGLSSPVTKSFNRGEC
MFI antibody/isotype control, normalized to full-length human CD137 [1]: 0.22
MFI antibody/isotype control, normalized to full-length human CD137 [2]: 0.37
MFI antibody/isotype control, normalized to full-length human CD137 [3]: 0.19
MFI antibody/isotype control, normalized to full-length human CD137 [4]: 0.17
MFI antibody/isotype control, normalized to full-length human CD137 [5]: 0.16
MFI antibody/isotype control, normalized to full-length human CD137 [6]: 0.26
EC50 [7]: 0.13 to 0.24 µg/mL
EC50 [8]: 0.21 to 0.31 µg/mL
EC50 [9]: 0.41 to 0.56 nM
EC50 [10]: 0.16 to 0.27 nM
Kd [11]: 587 nM
Kd [12]: 2700 nM
Kd [13]: 10 nM
